Measured values published in patent publication US20100092460A1 (Ablynx, published 2010).

T1: hCCR1 (human, UniProt P32246 1-355)
T1 construct: whole, on cells
T1 sequence (looked up): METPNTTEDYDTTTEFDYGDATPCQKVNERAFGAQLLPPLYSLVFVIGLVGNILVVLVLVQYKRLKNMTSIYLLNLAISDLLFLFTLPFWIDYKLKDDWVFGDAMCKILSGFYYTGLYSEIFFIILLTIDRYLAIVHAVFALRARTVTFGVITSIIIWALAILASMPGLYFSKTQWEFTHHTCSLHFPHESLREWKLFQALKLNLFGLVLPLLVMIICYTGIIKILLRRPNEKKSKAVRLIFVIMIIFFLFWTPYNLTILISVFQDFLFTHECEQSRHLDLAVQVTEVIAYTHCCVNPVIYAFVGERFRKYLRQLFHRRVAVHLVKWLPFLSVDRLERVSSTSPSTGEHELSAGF

T2: recombinant human CCL5/RANTES (Mucin stalk Chimera) (human, UniProt P13501 24-91, biotinylated in the ELISA)
T2 construct: also called mucin-CCL5; not shown: mucin stalk of the chimera (R&D 978-RN/CF); origin, limits and order not described
T2 sequence (looked up): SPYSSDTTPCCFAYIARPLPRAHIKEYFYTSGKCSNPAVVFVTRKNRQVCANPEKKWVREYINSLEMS

B1: Nanobody 12A4 (VHH)
VHH: EVQLVESGGGLVQPGGSLRLSCAASGFTLDDYAIGWFRQAPGKEREGVSCINSNDGNTYYADSVKGRFTISRDNAKSTVYLQMNSLKPDDTAVYYCAAEAMGYCSAYGSFEGYWGQGTQVTVSS
notes: llama VHH against CXCL12; purified; also called 12C1; 12E4; not shown: C-terminal c-myc tag and (His)6 tag coded by the vector
B2: Nanobody 16C1 (VHH)
VHH: EVQLVESGGGLVQAGGSLRLSCAASGRTFSSYVMGWFRQAPGKEREFVAAIRWSGGSTYYADSVKGRFTISRDNAKNTVYLQMNSLKPEDTAVYYCAADLLGDSDYEPSSGFGSWGQGTQVTVSS
notes: llama VHH against CCL2; not shown: C-terminal c-myc tag and (His)6 tag coded by the vector
B3: Nanobody 16D5 (VHH)
VHH: EVQLVESGGGLVQAGGSLRLSCAASGFTFDDYAIAWFRQAPGKEREVVSCISSSDGSTYYADSVKGRFTISSDNAKNTVFLQMNSLKPEDTAVYYCAAVSNCPRDSDYIPYLHYWWGQGTQVTVSS
notes: as for B2
B4: CCL5 (ligand, UniProt P13501 24-91, looked up)
chain: T2 sequence (looked up)
modifications: also: 125I label, position not given here
notes: also called RANTES
B5: Nanobody 10H3 (VHH)
VHH: EVQLVESGGGLVQAGGSLRLSCAASGRTFSTYVMGWFRQAPGKEREFVAGITSSIGVTRYAGSVQDRFTISKDNAKNTVFLQMNSLKPEDTADYYCAARPDYYISINPVAYPYWGQGTQVTVSS
notes: llama VHH against CCL5; purified; not shown: C-terminal c-myc tag and (His)6 tag coded by the vector

Experiments:
[1] = biological target: T3, recombinant human CXCL12/SDF1alpha (human, UniProt P48061-2 22-89, biotinylated in the ELISA; 125I label in the radioligand assays); test: inhibition of 125I-CXCL12 (57 pM) binding to CXCR4 on HEK293T cells; specific-binding data
[2] = biological target: T3, recombinant human CXCL12/SDF1alpha; test: inhibition of 125I-CXCL12 (57 pM) binding to CXCR4 on HEK293T cells; radioligand preincubated with purified Nanobody; total binding data
[3] = biological target: T3, recombinant human CXCL12/SDF1alpha; test: cell-based or functional assay
[4] = biological target: T4, recombinant human CCL2/MCP1 (human, UniProt P13500 24-99, 125I label in the radioligand assays); test: inhibition of 125I-CCL2 binding to hCCR2 (HEK293T cells), purified Nanobody and 10x diluted extract
T4 construct: Immunogen and selection antigen was the Mucin stalk Chimera (R&D 979-MC/CF)

[5] = biological target: T4, recombinant human CCL2/MCP1; test: inhibition of 125I-CCL2 binding to hCCR2 (HEK293T cells), 10x diluted extract
hCCR1 = biological target: T1, hCCR1; test: competition of unlabeled CCL5 with 125I-CCL5 on HEK293T cells with hCCR1
[6] = biological target: T2, recombinant human CCL5/RANTES (Mucin …); test: ELISA, periplasmic extract on biotinylated mucin-CCL5 on neutravidin, anti-myc detection
CCL5 = biological target: B4; test: inhibition of 125I-CCL5 binding to hCCR1 (HEK293T cells), purified Nanobody

T3 sequence (P48061 22-89 limits assumed): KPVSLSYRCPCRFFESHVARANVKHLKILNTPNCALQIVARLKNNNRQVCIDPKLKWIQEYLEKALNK
T4 sequence (P13500 24-99 limits assumed): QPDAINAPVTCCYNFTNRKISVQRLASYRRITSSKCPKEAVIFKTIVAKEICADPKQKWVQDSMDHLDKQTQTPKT

B1
pIC50 [1]: 9.1
pIC50 [2]: 8.7
inhibition of CXCL12-induced PLC activation (3H-inositol phosphate accumulation, HEK293T cells with CXCR4 and G-alpha-qi5), pIC50 [3]: 7.2

B2
binding result [4]: binds

B3
binding result [5]: binds

B4
binding result (hCCR1): binds

B5
binding result [6]: binds
binding result (CCL5): binds
